In patent US20230116446A1:

Molecular target: CD122/CD132 complex (UniProt P14784)
Assay: cell-based or functional assay

Sequence of CD122/CD132 complex (P14784 27-551 limits assumed, chain 1 of 2): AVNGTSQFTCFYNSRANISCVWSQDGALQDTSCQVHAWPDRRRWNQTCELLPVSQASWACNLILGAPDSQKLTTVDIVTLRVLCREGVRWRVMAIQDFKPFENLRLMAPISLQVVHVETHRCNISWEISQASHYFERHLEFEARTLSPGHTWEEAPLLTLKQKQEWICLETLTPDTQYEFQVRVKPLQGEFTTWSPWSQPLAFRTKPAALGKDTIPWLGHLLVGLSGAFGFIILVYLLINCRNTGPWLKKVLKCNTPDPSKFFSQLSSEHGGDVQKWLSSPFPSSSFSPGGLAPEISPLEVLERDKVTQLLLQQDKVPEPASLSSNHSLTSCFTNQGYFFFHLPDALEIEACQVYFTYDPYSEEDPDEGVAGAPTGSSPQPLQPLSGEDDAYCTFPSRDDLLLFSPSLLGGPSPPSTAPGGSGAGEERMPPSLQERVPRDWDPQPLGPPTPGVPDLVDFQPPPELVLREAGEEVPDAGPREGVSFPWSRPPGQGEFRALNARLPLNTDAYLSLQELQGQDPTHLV
Sequence of CD122/CD132 complex (P31785 23-369 limits assumed, chain 2 of 2, further chain): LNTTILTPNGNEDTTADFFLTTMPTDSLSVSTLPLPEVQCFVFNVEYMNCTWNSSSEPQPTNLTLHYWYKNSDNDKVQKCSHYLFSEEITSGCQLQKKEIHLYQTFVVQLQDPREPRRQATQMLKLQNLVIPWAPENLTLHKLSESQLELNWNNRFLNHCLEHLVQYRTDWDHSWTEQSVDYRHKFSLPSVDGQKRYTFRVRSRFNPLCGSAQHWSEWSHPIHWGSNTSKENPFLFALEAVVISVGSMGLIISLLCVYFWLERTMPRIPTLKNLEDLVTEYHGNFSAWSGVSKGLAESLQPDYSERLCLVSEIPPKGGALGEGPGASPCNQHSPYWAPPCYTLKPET

Substance: Fc-IL15×Fc-IL15Rα sushi domain fusion protein (Fc fusion)
- EC50, IL2 reporter assay (HEK 293 reporter cells, SEAP, absorbance at 650 nM): 0.066 nM

Substance: Recombinant IL-15 (PeproTech 200-15) (from UniProt P40933 49-162) (ligand)
- EC50, IL2 reporter assay (HEK 293 reporter cells, SEAP, absorbance at 650 nM): 0.021 nM
